# Data from a protein production outcome set (Wang et al. 2014).
# Assay: label from the status in PepcDB records
sequence,measurement,value
MENPLFCPDCGMMRDNCTCKGKGRLSFFRNIIRPPEKSDTLNEDLQRRYPHIPPEIIENFPFPQPRPGQLDIINDIYQAIEEGYRYVILEAGTGTGKSAIACTLAGIYQPAYILTMTKQLQDQYAREFGFPVVKGRSNFFCLNDNLESTCDMGTCQTLPSSEKFQCPYGVVRGETLLGEEAFQDSYGNRVFFKTAEHCQYWEQKAEAINSPITLMNYDYAFLELNYVGHFDRRNLMILDEAHNIEDKLMRRLEVTISNKRLSKDIRRTIPPSMLREDDPAEWVLQIEAIADHYSDLELDSMSRRRRDRIKRTIKRLSELRMSLEDEPKNWVIDADDDSVSFKPLRVHHYAHDRLFSYSEVCLFMSATILSERLFCQWLGINPGDAYFVRVDSPFPASRRPIELKIAGKMSRNRIRHTAPETIPILNRILERHKNDKGLIHTHNYRCQRFIMDNIPSRRLIDHKASNREAVLRYFEESDEPLVLVSPSMSEGVDLPYDKCRFQVIYKIPFPYLGDKQVNRRQRMDQRWYAYKTIMTLMQAYGRGMRAHDDSCYTYILDGNIEMIFRSPLYRSLLPEFFKEAIVNE,protein production,failed
MQSSNDPPRGAGGGPECAADHRAVPGRTYVETGQGAGYDGPRYDDPWYDALASGWGESAGPAAPGPTVPPMRRSAPAEPPRAAADVYLEVQRSAAFQEVRSRYRRFVVPAVAGFFLWYVAYVVAATSAPALMARPVAGAVNVAMVAGLGQFLTTFLLTWAYARHARLRRDRAALELRWDTQELTRGVRGDAS,protein production,failed
SLLGQKSQRYKAEEGLQAQGEAPGLMDVQIPTAEEQKAASSSSTLIMGTLEEVTDSGSPSPPQSPEGASSSLTVTDSTLWSQSDEGSSSNEEEGPSTSPDPAHLESLFREALDEKVAELVRFLLRKYQIKEPVTKAEMLESVIKNYKNHFPDIFSKASECMQVIFGIDVKEVDPAGHSYILVTCLGLSYDGLLGDDQSTPKTGLLIIVLGMILMEGSRAPEEAIWEALSVMGLYDGREHSVYWKLRKLLTQEWVQENYLEYRQAPGSDPVRYEFLWGPRALAETSYVKVLEHVVRVNARVRISYPSLHEEALGEEKGV,protein production,not failed
MVGTLYDKMYENFVEEVDAVDNGISQWAEGEPRYALTTTLSARVARLNPTWNHPDQDTEAGFKRAMDLVQEEFLQRLDFYQHSWLPARALVEEALAQRFQVDPSGEIVELAKGACPWKEHLYHLESGLSPPVAIFFVIYTDQAGQWRIQCVPKEPHSFQSRLPLPEPWRGLRDEALDQVSGIPGCIFVHASGFIGGHRTREGALSMARATLAQRSYLPQIS,protein production,failed
MMDSTASRQDLLTAASMRFQNLIQWSGAVLLCALPLGVTLAATGGEPAAVTQVDIAPCLAAAAGDDMDKAKSACADVIDNEKTAKGDLIKALVARGALYARHDQVDRAIADDSRALSLDPTLADVFNARGELWLKKGDKPKAVQDFGAALKLDPNHEKAKANHKAMARELERIGAQMAVAGKPSFNCARAARAVEKAICGNRELADLDREIYGSHLRVIREAQSPAEARKIQREQDDFIARRNSGFGRPGYDLKKAMQDRLQQINGVDGY,protein production,failed
SKEVRGTLKVSAPRDIGKQHIAPILAAFTEQYPEVVPYLYLNDNISNLAESGLDVVIRYGELADSSLISRKLATSRRVLCASPAYLARKGIPKTPQDLAQHDCLAMVRSNEEMKTWHFQENEQHKVITVVPKSFADDGEVIR,protein production,failed
ATFFIKMNQKTVPEFKNKHLRLAISQAINKKGYVNSVLNDGSLPSNNFTGVGTADTPDGKDFARTIKSPLKFNPDLAKKNWREAQKELGKNKFTFTMNTQDTPASKIAAEYIKSQIESHLPGVTLKIKQMPFKQKTTLELANNYEASYSGWSPDYPDPTAFLQTMTKNNAQNNTDWSNKEYDQLLKDANSKLLRKLGERNTSLQKAEYILLHEAPVAPVYQ,protein production,failed
MYEPGTEQINCNGRLIELPTLEVVRPAPKMPSDANIDWLLHIYFTRREFTRCRRLIERELNRHLNPEYLYFVQGLIDREEGNHIEALRHLQKSAELNPRNIETYKEIGRTLYIMGRFSQALGVFREAEQRSSRQDHEIYHYLGELLYRAATTQSQKDVASQQQDEARTYFELAVQSGRKLESYVRLAELYRKDKQYQKAIEILENCLHLTPENSEVLIEISVLYLKINETQKAHDRLAEVVSIERKCSPKGLLAFGAILQSRNDIDGALSKYSQIANAEPEIAELWNNIGLCFFKKQKFIVAISSLRKSVWLSPLNYNALYNLSLIYIASEQYASAFHTLAAAINLRKDNAECYMLLGLCLRKLDDMENAFVALERASSMATGQQGAGRNPLVVLNFALFCYETGRLALSTEQYNRFMSQAQDLLLPTEYKFQATKLKSLLRISNQGNGILLDSADMGESDLGHNRATELLPDELPLEVNAVVSQN,protein production,failed
MADWLIGLIMGAVEGLTEFLPVSSTGHMILTGHLIGFDDERAKVFEVVIQLGSILAVVVIFWKRLWSLVGIGKVTDGPSLNLLHIIIGMIPAGVLGVLFHSTIKEGLFGPGPVVISLVAGGILMIVAEKFSKPSTARTLDEITYKQAFTIGMFQCLALWPGFSRSGSTISGGLLARVSHTAAAEYTFILAVPMMVAASGLDLIKSWDVLSSADITLFVTGFVTAFVVAMLAIVSFLKLLSRVKLTPFAYYRFILAAVFYFFIM,protein production,failed
MGPINLLWLQAAGCGGCTMAILEQGRAGWFAELASFDINLLWHPSVSEATADDVIDLLAAVSAARTPLSVLVVEGAVLRGPNGSGRFNMLGGTGRSMASWISELAPRADYVVAVGSCSAYGGVPAAGHNPTDASGLQFLGTEPGGVLGAAFRSKAGLPVINIAGCAPHPGWIAETLAALALGEFSAAALDSFARPKFFAEHLAHHGCARNEFYEFKASAEAMSQRGCLMEHLGCKATQAVGDCNQRSWNGGGSCTQAGYPCIACTSPGFEAAHNYMTTAKVAGIPVGLPLDMPKAWFVALAALSKSATPKRVRANATADHVVVPPTPSGHRRK,protein production,failed
EADMLFSVTVPGSTANLGPGFDSVGMALSRYLKLTVFESDKWSFEAETETVAGIPAGTDNLIYQVAKRTADLYGKEMPPVHVKVWSDIPLARGLGSSAAAIVAAIELADELCGLKLSEADKLHLASLEEGHPDNAGASLVGGLVIGLHEDDETQM,protein production,failed
MSLLPLPFTVHFDPTNQELLLSGKMRPESAAEITDALKLVQQSLEKYSGVVYVNVKRLTHINMTAFAALADILAASSRIRPERKIVIITSSVVAWSTSLFQTLAASQPSLSVEVYDSAFYPGQSFVEDETFIPILRTQTKMTWRHERELLPRHGLRSGLVIADICCGIGDFAALVQREFKPARLVALDHSVRSLEYARRVAADFDLQGIEYTYGDASQMLLRDNQFDFVTCRHSLQIFNRPEMLLRELYRICKPGGRVYITNEKNSHCLGEPHAESIKWTYEEVAKLFKHFDMDVEMGPKSRHLLADAGFDNIKVDSFMVTNLDGDPQDFADIIEAWENVYAGEMAVRRGDSSDFIRRFRQGFKDHVFAALHPKGYAGWPIWAASGRKPL,protein production,failed
EMRLEKDRFSVNLDVKHFSPEELKVKVLGDVIEVHGKHEERQDEHGFISREFHRKYRIPADVDPLTITSSLSSDGVLTVNGPRKQVSGPERTIPIT,protein production,failed
MRIIKFPEQISEDIIHYTFLDDIISYNCEKCRGSCCHVNNSLLLDAKTASFLKRTYLKDFIVSDDSVSLLSCGKKCWFHSELGCTINDLGLNKPLTCELYPFHIKKIQNFYIVSFTPCPTFQLNLGEGQRYKDIEDVVLRYIKTGVPVFSPSLHVSEERLKYEIEYQNNFKNTLSEYYRTKTADGTTEFKEYEKWYIYYLDFRWGSIPLSYTSSQANQFWNLYKRVCEDVYKKISYIRTDNIYFIIANQFNKTISKHFQLNFIDKELEHHHHHH,protein production,not failed
MFCVSLILQTLKQPNVHRQVLAIALPMVLSNITVPLLGLVDAAVIGHLEHAWYLGGVALGSTMISVTFWLLGFLRMSTTGLTAQAHGAQNSQQLARVLLQGSVIALGLAALFLLFHRPVAELIFHFSDASSEVKTYAEAYFYIRAWSAPAALLNFVLLGWLLGTQNARAPMWMVIITNLTNIVLDLLLVLGLGLKVEGAAIASVIADYAGLLFGLLCVGRYWRQHQLPAPFSFIPSLTKELSRLVALNRDIFLRSLCLQAVFSFMTFQGAALGDDIVAANAVLMSFLMMISYGMDGFAYAMEAMVGKAIGAKDDRQLRTAMISSTFWATMICLLLSLIFLGFGSDLIQMITNIPSVQATAEHYLPWLVAMPLIAVWCFLLDGVFIGATKGKEMRNSMAVSAVAFFAIYGFMTHYGNHALWLAMLSFMALRGFTLGATFYTQWRAGTFLPARFSI,protein production,failed
MNQQPIKIAVFGLGGVGGYYGAMLALRAAATDGLLEVSWIARGAHLEAIRAAGGLRVVTPSRDFLARPTCVTDNPAEVGTVDYILFCTKDYDMERGVAEIRPMIGQNTKILPLLNGADIAERMRTYLPDTVVWKGCVYISARKSAPGLITLEADRELFYFGSGLPEQTDDEVRLAELLTAAGIRAYNPTDIDWYIMKKFMMISVTATATAYFDKPIGSILTEHEPELLSLLEEVAELFRAKYGQVPDDVVQQLLDKQRKMPPESTSSMHSDFLQGGSTEVETLTGYVVREAEALRVDLPMYKRMYRELVSRTAN,protein production,not failed
MLIKLTGGTVYDPANGIDGQVRNLFIRDGRIVHSLNGATPDQEYDLRGKVVMAGAIDMHTHIGGGKVTIARNLLPEDHRADPEPRRGLMRAGCGHAAPSTLTTGYRYAEMGYTAGFEPAVLPINARQAHMEMADVPLLDVGGYVMLGSDDFFLRLLSAGSDQKLINDYVAWTIRSAKAIGIKVVNPGGISAFKFNQRMLDLDEKHVYYGVTPRQILKSLARAVHELGVPHPLHVHGCNLGVPGNVETTLNTISGIEGLPMHLTHIQFHSYGVEGDRKFSSGAARIAEAINANKNITIDVGQILFGQTVTASGDSMRQHANAGHAHPDKWVCMDIECDAGCGVVPFKYRDKNFVNALQWCIGLETFLLIDDPWRVFLTTDHPNGAPFTTYPHLIRLLMDKSFRNDMLATINPEAAALSTLGSIDREYSLYEIAIMTRAGAARLLGLTDRGHLGAGAAADITVYTDQADKEKMFTRPDYVFKDGELVVRNGEVVKVVWGNLHTVQPEFDNGIEARLRDYFDRYHTMKLDNFVINDWEIEGDGRSKILVHPCHQGTRSLEHHHHHH,protein production,failed
MFISDKSRPTDFYKDDHHNSSTTSTTRDMMIDVLTTTNESVDLQSHHHHNHHNHHLHQSQPQQQILLGESSGEDHEVKAPKKRAETWVQDETRSLIMFRRGMDGLFNTSKSNKHLWEQISSKMREKGFDRSPTMCTDKWRNLLKEFKKAKHHDRGNGSAKMSYYKEIEDILRERSKKVTPPQYNKSPNTPPTSAKVDSFMQFTDKGFDDTSISFGSVEANGRPALNLERRLDHDGHPLAITTAVDAVAANGVTPWNWRETPGNGDDSHGQPFGGRVITVKFGDYTRRIGVDGSAEAIKEVIRSAFGLRTRRAFWLEDEDQIIRCLDRDMPLGNYLLRLDDVCKTHLAGLAIRVCHYDESNQLPVHSEEKIFYTEEDYREFLARQGWSSLQVDGFRNIENMDDLQPGAVYRGVR,protein production,failed
MNRKKLQKLTDTLTKNCKHFNKFEVNCLIKLFYDLVGGVERQGLVVGLDRNAFRNILHVTFGMTDDMIMDRVFRGFDKDNDGCVNVLEWIHGLSLFLRGSLEEKMKYCFEVFDLNGDGFISKEEMFHMLKNSLLKQPSEEDPDEGIKDLVEITLKKMDHDHDGKLSFADYELAVREETLLLEAFGPCLPDPKSQMEFEAQVFKDPNEFNDM,protein production,failed
LKKAGGALIAGVLKNGPADDAGIKPGDVLVAVNGKPIFNSSEMLNMVASLAPGKSATLTILRHGGQQDIQVRIGKRPS,protein production,failed
MMPRLFLLAGLVSAPPLSLDPEPPSSIKMTYSGIVDAGSTGTRLNIYGFLDGEIRHQGLFTNTSRLASIEDDEEIKTSIRELFAHAEPFYSNIKKMPIGFYGTAGFRTLDKSRSDHVLDLIRSELKDYNLKEAEVINGVDEGKLALMALVLSNRGTDAGHRSLGIVDMGGGSTQISLLERDGKVISESIDLGITVLSLSDPDECKIEGDAEQESCASHIASKLAGVAIRPFLNSVDDLYLLSYFHDEFGKVIRSEKTSMREVKDEFYKRCNLLESHECRRLFYLISFIKSLGIEDTKAIHQIDTNNGINITWASGKGYELNKKYN,protein production,failed
